From patent US20210095014A1 (NGM BIOPHARMACEUTICALS, published 2021)

T1: SE1 peptide of human ANGPTL8 (amino acids 25-60) (human)
T1 construct: also called hSE1; hSE1 peptide
T1 peptide: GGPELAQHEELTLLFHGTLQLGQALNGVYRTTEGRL

T2: SE1 peptide of cynomolgus monkey ANGPTL8 (amino acids 25-60) (cynomolgus monkey)
T2 construct: also called cSE1; cSE1 peptide
T2 peptide: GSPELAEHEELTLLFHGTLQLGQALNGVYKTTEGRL

T3: NusA-hANGPTL8 fusion protein (human, UniProt Q6UXH0 22-198)
T3 construct: Expressed in E. coli BL21 and captured on a chelating Sepharose column; also called hANGPTL8 (NusA-hANGPTL8 fusion protein); not shown: bacterial NusA protein, fusion partner
T3 sequence: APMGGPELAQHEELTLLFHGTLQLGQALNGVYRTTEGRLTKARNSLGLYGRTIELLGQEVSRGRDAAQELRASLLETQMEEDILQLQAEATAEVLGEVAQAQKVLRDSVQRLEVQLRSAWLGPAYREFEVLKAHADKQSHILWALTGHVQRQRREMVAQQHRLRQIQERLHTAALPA


Assays:
[1] = target: T1, SE1 peptide of human ANGPTL8 (amino …); assay: BIACORE (SPR); humanized antibody Hz1E5
[2] = target: T1, SE1 peptide of human ANGPTL8 (amino …); assay: BIACORE (SPR), antibody from hybridoma supernatant captured by anti-mouse Fc, peptide injected, 25 C
Protocol: (§1) The binding affinities of antibodies 1E5, 1A8, and 1E9 to human ANGPTL8 were measured using a BIACORE system (GE Healthcare LifeSciences). Briefly, anti-mouse Fc antibody (Sigma-Aldrich) was immobilized on all four flow cells of a CM5 chip using amine coupling reagents (GE Healthcare LifeSciences). Antibody from hybridoma supernatants were captured on flow cells 2, 3, and 4 using flow cell 1 as a reference. The SE1 peptide of human ANGPTL8 (hSE1; SEQ ID NO:6), a corresponding SE1 peptide of cynomolgus monkey ANGPTL8 (cSE1; SEQ ID NO:67), or human ANGPTL8 was injected at a flow rate of 50 μL/min at 25° C. Kinetic data were collected over time and fit using the simultaneous global fit equation to yield affinity constants (KD values) for each antibody.
(§2) Assay results are shown in Table 4 and the BIACORE result for 1E5 binding to hANGPTL8 (NusA-hANGPTL8 fusion protein) is shown in FIG. 4.

[3] = target: T2, SE1 peptide of cynomolgus monkey …; assay: as above
Protocol: as §1, §2

[4] = target: T3, NusA-hANGPTL8 fusion protein; assay: BIACORE (SPR), antibody from hybridoma supernatant captured by anti-mouse Fc, NusA-hANGPTL8 injected, 25 C
Protocol: as §1, §2

[5] = target: T1, SE1 peptide of human ANGPTL8 (amino …); assay: BIACORE (SPR); chimeric 1E5 (murine variable regions, human Fc)

| Binder | Kd [1] [nM] | Kd [2] [nM] | Kd [3] [nM] | Kd [4] [nM] | Kd [5] [nM] |
| --- | --- | --- | --- | --- | --- |
| humanized anti-ANGPTL8 antibody Hz1E5 (antibody, human IgG1, kappa, V domains shown, also called Hz1E5.A1) VH: EVQLVQSGAEVKKPGSSVKVSCKASGYTFTDYTIHWVRQAPGQGLEWMGWFYPGSDNIKYNAKFKDRATLTADKSTSTAYMELSSLRSEDTAVYYCARHEAFSYYDVAWFAYWGQGTLVTVSS VL: DVVMTQTPLSLPVTPGEPASISCRSSQSLVHSNGNTYLHWYLQKPGQSPQLLIYTVSNRFSGVPDRFSGSGSGSDFTLKISRVEAEDVGVYFCSQTTHFPYTFGQGTKVEIKR | 0.9 |  |  |  |  |
| anti-ANGPTL8 antibody 1E5 (antibody, V domains shown, Mouse monoclonal antibody, tested from hybridoma supernatant and captured by anti-mouse Fc; also called parental 1E5 from hybridoma) VH: QVQLQQSGAELVKPGTSVRLSCKASGYTFTDYTIHWVKLRSGQGLEWIGWFYPGSDNIKYNAKFKDKATLTADKSSSTVYMDLGRLTSEDSAVYFCARHEAFSYYDVAWFAYWGQGTLVTVSA VL: DVVMTQTPLSLPVSLGDQASISCRSSQSLVHSNGNTYLHWYLQKPGQSPKLLIYTVSNRFSGVPDRFSGSGSGSDFTLNFSRVEAEDLGVYFCSQTTHFPYTFGGGTKLEIK |  | 0.41 | 0.67 | 0.44 |  |
| anti-ANGPTL8 antibody 1E9 (antibody, V domains shown, Mouse monoclonal antibody, tested from hybridoma supernatant and captured by anti-mouse Fc) VH: QVQLQQSGTELVKPGASVKLSCKASGYTFTDYTIHWVKQRSGQGLEWIGWFYPGSDNIKFNAKFRDKATLTADKSSSTVYMELSRLTSEDSAVYFCARHEAFYVYDVAWFANWGQGTLVTVST VL: DVVMTQTPLSLPVSLGDQASISCRSSQSLVHSNGNTYLHWFLQKPGQSPNLLIYTVSNRFSGVPDRFSGSGSGTDFTLKISRVEAGDLGVYFCSQSTHFPYTFGGGTKLEIK |  | 0.92 | 1.8 | 2.1 |  |
| chimeric 1E5 antibody (antibody, V domains shown, Contains 'the murine variable regions of 1E5 and a human Fc region'; also called chimeric antibody 1E5) VH: QVQLQQSGAELVKPGTSVRLSCKASGYTFTDYTIHWVKLRSGQGLEWIGWFYPGSDNIKYNAKFKDKATLTADKSSSTVYMDLGRLTSEDSAVYFCARHEAFSYYDVAWFAYWGQGTLVTVSA VL: DVVMTQTPLSLPVSLGDQASISCRSSQSLVHSNGNTYLHWYLQKPGQSPKLLIYTVSNRFSGVPDRFSGSGSGSDFTLNFSRVEAEDLGVYFCSQTTHFPYTFGGGTKLEIK |  |  |  |  | 0.35 |
| anti-ANGPTL8 antibody 1A8 (antibody, V domains shown, Mouse monoclonal antibody, tested from hybridoma supernatant and captured by anti-mouse Fc) VH: QVQLQQSGAELVKPGASVKLSCKASGYTFTDYTIHWVKQRSGQGLEWIGWFYPGSDNIKYNEKFKDKATLTADKSSSIVYMELSRLTSEDSAVYFCARHEAYYVYDVAWFAYWGQGTLVTVSA VL: DVVMTQTPLSLPVSLGDQASISCSSSQSLVHSNGNTFLHWFLQRPGQSPKLLIYTVSNRFSGVPDRFSGSGSGTDFTLKISRVEAEDLGVYFCSQSTHFPYTFGGGTTLEIK |  | 0.8 | 1.04 | 2.5 |  |
